B1: No. 3 clone RNA aptamer with 5' poly(A) (ssRNA)
RNA: GGUAGAUACGAUGGAUGGUUGUGUAAAGGUGGUCGUAUCCGCCGACAUGACGCGCAGCCAA
B2: No. 26 clone RNA aptamer with 5' poly(A) (ssRNA)
RNA: GGUAGAUACGAUGGAUACCGAAAAAUUAGUGUCGUUGACUGCAACAUGACGCGCAGCCAA
B3: No. 5 clone RNA aptamer with 5' poly(A) (ssRNA)
RNA: GGUAGAUACGAUGGACUAACUGCGCAAAUUACUCGUAUUAGCCGACAUGACGCGCAGCCAA

Molecular target: Glutathione S-transferase (GST) (Schistosoma japonicum, UniProt P08515 P08515:2-218)
Assay: SPR; Kd fitted with BIA Evolution 3.1 but value only in figure; RNA immobilized via poly(A)/poly(dT)
Conditions: chain copies: 2 inferred
Text: Synthetic biotinylated polydT (Hokkaido System Science) is allowed to bind to the surface of an SA BIACORE chip (Biacore). The single-stranded RNA molecules (RNA adaptor molecules) comprising polyA (Aₙ) added on the 5′-terminal side are annealed with the synthetic biotinylated polydT immobilized on the chip surface. As a result, the single-stranded RNA molecules (RNA adaptor molecules) are immobilized thereon via the hybrid bonding between the polydT and the polyA (Aₙ).
This chip on which the single-stranded RNA molecules (RNA adaptor molecules) are immobilized is utilized to measure the process of formation of complexes of the single-stranded RNA molecules (RNA adaptor molecules) and GST proteins and the process of dissociation thereof by use of a surface plasmon resonance detection apparatus. The results are analyzed to determine the equilibrium dissociation constants of the complexes.
Parameter fitting is conducted by use of BIA Evolution ver. 3.1 for the concentrations of the GST protein in the poured GST protein solutions and the time-dependent changes in signal intensity measured in this process, to thereby determine equilibrium dissociation constant KD.

Sequence of Glutathione S-transferase (GST) (P08515 2-218, one chain of several): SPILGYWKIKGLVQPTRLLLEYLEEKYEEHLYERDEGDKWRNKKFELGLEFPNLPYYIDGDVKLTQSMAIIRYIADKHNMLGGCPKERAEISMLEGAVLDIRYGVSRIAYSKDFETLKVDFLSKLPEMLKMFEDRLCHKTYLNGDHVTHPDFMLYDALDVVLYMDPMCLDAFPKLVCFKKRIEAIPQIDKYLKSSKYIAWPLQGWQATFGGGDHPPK

Binder | binding result
B1 | binds
B2 | binds
B3 | binds
